T1: GST-MYB47 (Arabidopsis thaliana, UniProt Q6R0C2 1-267)
T1 sequence: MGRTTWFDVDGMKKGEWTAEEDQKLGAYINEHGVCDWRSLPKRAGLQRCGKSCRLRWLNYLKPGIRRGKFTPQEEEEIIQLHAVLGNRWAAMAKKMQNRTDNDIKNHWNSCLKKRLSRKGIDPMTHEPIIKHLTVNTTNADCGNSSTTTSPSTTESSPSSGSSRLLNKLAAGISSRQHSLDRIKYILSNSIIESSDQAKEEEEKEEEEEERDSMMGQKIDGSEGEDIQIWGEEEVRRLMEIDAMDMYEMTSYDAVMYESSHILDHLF

T2: GST-MYB95 (Arabidopsis thaliana, UniProt Q7DSY5 1-271)
T2 sequence: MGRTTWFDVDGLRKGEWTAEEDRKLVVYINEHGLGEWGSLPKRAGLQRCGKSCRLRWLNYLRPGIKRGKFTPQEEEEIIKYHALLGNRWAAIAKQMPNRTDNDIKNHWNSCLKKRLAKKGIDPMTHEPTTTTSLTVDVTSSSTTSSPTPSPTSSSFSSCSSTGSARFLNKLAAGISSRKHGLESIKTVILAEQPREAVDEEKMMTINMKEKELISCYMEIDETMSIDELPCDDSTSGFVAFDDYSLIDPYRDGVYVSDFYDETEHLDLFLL


Experiments:
GST-MYB47 [1] = biological target: T1, GST-MYB47; test: EMSA; 5 mM Mg2+; 10 mM Tris-HCl pH 7.5, 50 mM KCl, 1 mM DTT, 2.5% glycerol, 5 mM MgCl2, 0.1% IGEPAL CA-630, 0.05 ug/uL poly(dI-dC); 500 ng protein, probe 5 uM; competitor 20 min then probe 30 min at room temperature; conditions: protein: recombinant; tags: N-terminal GST (pDEST15); label: 5' biotin on strand 1 as probe; blunt
GST-MYB95 [2] = biological target: T2, GST-MYB95; test: as above; conditions: protein: recombinant; tags: N-terminal GST (pDEST15); label: 5' biotin on strand 1 as probe; blunt
GST-MYB47 [3] = biological target: T1, GST-MYB47; test: competition EMSA; 20-fold excess over pTSA1 probe; 10 mM Tris-HCl pH 7.5, 50 mM KCl, 1 mM DTT, 2.5% glycerol, 5 mM MgCl2, 0.1% IGEPAL CA-630, 0.05 ug/uL poly(dI-dC); 500 ng protein, probe 5 uM; competitor 20 min then probe 30 min at room temperature; conditions: protein: recombinant; tags: N-terminal GST (pDEST15); blunt
GST-MYB95 [4] = biological target: T2, GST-MYB95; test: as above; conditions: protein: recombinant; tags: N-terminal GST (pDEST15); blunt

| Binder | binding result (GST-MYB47 [1]) | binding result (GST-MYB95 [2]) | binding result (GST-MYB47 [3]) | binding result (GST-MYB95 [4]) |
| --- | --- | --- | --- | --- |
| pTSA1 probe (dsDNA) DNA 1: GAATGAAATCCACGTTTAAGTTAGTTACAACGGTTT DNA 2: AAACCGTTGTAACTAACTTAAACGTGGATTTCATTC | binds | binds | – | – |
| pTSA1-m2 (box2 mutated) (dsDNA) DNA 1: GAATGAAATCCACGTTTAACCCCTTTACAACGGTTT DNA 2: AAACCGTTGTAAAGGGGTTAAACGTGGATTTCATTC | – | – | no binding | no binding |
| pTSA1-m1 (box1 mutated) (dsDNA) DNA 1: GAATGAAATCTTTCCCCAAGTTAGTTACAACGGTTT DNA 2: AAACCGTTGTAACTAACTTGGGGAAAGATTTCATTC | – | – | binds | binds |
